Consider two molecules from patent publication US20160311878A1 (SAMSUNG ELECTRONICS, published 2016).

This assay concerns the target T1, full-length HDM2 (NP_002383.2) (human, UniProt Q00987-11 1-497, limits assumed).
T1 construct: it was coated on the ELISA plate at 20 ug/ml; also called full-length MDM2
Briefly: ELISA; full-length HDM2 coated on plate, GST fusion at 0-5.5 uM, anti-GST-HRP detection (FIG. 4). On the technique in general: An ELISA detects its analyte on a solid surface through an enzyme-linked reagent.

T1 sequence (Q00987 other isoform, or with tags, fused parts or gaps limits assumed): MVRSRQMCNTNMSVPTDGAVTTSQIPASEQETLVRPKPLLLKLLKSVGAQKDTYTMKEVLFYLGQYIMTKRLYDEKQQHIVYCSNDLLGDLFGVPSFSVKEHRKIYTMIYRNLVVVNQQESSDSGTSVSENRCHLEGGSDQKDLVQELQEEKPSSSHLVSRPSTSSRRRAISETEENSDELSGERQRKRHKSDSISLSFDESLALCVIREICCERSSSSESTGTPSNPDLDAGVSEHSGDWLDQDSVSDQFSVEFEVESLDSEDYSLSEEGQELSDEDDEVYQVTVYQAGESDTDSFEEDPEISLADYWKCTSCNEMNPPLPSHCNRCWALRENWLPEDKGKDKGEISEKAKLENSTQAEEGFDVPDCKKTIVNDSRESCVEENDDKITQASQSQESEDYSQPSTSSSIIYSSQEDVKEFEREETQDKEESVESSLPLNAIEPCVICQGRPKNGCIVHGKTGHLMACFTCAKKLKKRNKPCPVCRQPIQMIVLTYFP
Experimental: The well was incubated overnight at 4° C. Thereafter, bindings between other proteins were blocked with 300 ul of 3% skim milk w/PBS-T (at room temperature for 3 hours).
One hour after, the plate was washed with 300 uL of PBS-T, and treated with 100 uL of HRP conjugated-anti-GST antibody (Abcam, 1:2000). After the reaction at room temperature for one hour, the plate was treated with TMB substrate (Pierce, 100 uL) and left for 5 minute until coloring reaction occur, and then, treated with stop solution (Pierce, 100 uL). Thereafter, absorbance at 450 nm was measured using microwell reader (Molecular Device, 340PC384).

B1: GST-M25 (modified three-helix bundle protein M25, an a3D variant, fused to GST) (designed binder)
chain: MGSWFEFAWRLLEIKTRLQALGGSEAELAAFEKEIAAFESELQAYKGKGNPEVEALRFEAYWIRLELQAYRHN
notes: Tested as a GST fusion in ELISA and detected with an HRP-conjugated anti-GST antibody; GST is placed at the N-terminus from the name GST-M25 and the pGEX vector; not shown: GST carrier (from the GST cds of pGEX-4T3, GE Healthcare) and the vector junction between GST and M25
Consider B1, for which the binding result was “binds”.

B2: GST-M11 (modified three-helix bundle protein M11, an a3D variant, fused to GST) (designed binder)
chain: MGSWAEFSQRLFAIYWRLLALGGSEAELAAFEKEIAAFESELQAYKGKGNPEVEALRKEAAAIRDELQAYRHN
notes: Tested as a GST fusion in ELISA and detected with an HRP-conjugated anti-GST antibody; GST is placed at the N-terminus from the name GST-M11 and the pGEX vector; not shown: GST carrier (from the GST cds of pGEX-4T3, GE Healthcare) and the vector junction between GST and M11
For B2, the binding result was “binds”.
